Assay results taken from patent US9549967B2, “Regulation of sodium channels by PLUNC proteins” (The University of North Carolina at Chapel Hill, priority 2009, dated 2017).
Entries after “also recorded” stand apart in the source; their conditions may differ.

T1: ENaC (Homo sapiens, UniProt P37088+P51168+P51170)
T1 construct: endogenous in cells; host or cells: primary human bronchial epithelial cultures
T1 sequence (P37088 1-669): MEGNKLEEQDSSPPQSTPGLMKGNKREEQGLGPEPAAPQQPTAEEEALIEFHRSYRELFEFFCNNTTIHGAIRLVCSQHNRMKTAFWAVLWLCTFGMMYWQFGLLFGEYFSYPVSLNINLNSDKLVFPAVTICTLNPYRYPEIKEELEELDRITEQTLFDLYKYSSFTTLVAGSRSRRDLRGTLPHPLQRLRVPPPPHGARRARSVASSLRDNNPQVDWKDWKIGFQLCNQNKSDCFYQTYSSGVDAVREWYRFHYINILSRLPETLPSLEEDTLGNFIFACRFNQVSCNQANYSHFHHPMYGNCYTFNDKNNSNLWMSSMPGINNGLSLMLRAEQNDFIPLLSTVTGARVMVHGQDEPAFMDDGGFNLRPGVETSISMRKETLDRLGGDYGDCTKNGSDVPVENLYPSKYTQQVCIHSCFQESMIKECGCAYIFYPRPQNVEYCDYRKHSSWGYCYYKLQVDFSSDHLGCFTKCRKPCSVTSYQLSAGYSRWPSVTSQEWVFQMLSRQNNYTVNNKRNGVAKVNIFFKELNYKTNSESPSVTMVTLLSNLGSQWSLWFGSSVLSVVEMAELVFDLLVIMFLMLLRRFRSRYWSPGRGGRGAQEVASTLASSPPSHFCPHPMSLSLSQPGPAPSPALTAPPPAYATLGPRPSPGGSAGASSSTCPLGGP
T1 sequence (P51168 1-640): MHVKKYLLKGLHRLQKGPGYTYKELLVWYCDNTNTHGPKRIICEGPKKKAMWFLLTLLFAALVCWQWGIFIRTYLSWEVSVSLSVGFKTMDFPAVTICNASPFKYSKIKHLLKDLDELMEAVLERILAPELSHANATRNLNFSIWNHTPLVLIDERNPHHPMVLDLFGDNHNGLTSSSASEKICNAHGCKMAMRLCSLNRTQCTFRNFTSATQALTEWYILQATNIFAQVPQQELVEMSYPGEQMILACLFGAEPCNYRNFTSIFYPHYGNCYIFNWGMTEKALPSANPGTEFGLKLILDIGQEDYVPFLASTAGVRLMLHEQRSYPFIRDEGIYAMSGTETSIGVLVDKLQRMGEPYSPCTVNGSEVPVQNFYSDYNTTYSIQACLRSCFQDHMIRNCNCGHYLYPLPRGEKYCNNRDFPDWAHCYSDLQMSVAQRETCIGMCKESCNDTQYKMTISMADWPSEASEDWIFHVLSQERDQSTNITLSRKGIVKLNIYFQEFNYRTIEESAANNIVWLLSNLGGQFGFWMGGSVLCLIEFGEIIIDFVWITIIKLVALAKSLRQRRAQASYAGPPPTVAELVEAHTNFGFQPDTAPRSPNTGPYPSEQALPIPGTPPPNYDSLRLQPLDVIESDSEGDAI
T1 sequence (P51170 1-649): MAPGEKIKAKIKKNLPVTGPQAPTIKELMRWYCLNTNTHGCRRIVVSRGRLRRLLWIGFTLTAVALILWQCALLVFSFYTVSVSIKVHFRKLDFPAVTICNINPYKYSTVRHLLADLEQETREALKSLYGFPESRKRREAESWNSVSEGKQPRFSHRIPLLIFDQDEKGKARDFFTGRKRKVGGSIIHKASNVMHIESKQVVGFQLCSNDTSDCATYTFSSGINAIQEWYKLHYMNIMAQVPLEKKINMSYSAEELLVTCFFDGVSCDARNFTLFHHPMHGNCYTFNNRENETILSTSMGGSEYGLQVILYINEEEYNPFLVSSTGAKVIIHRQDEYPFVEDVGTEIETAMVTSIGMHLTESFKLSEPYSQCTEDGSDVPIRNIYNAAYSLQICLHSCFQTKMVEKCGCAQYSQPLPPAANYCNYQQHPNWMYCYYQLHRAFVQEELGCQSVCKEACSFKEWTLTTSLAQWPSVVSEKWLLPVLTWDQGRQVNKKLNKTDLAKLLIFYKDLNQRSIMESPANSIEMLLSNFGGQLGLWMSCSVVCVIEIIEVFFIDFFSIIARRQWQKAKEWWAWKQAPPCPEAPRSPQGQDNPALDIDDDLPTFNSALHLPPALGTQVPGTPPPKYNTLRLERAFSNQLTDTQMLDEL

T2: αβγENaC (Rattus norvegicus, UniProt P37089+P37090+P37091)
T2 construct: expressed in transfected cells; host or cells: Xenopus laevis oocytes (cRNA injection)
T2 sequence (P37089 1-698): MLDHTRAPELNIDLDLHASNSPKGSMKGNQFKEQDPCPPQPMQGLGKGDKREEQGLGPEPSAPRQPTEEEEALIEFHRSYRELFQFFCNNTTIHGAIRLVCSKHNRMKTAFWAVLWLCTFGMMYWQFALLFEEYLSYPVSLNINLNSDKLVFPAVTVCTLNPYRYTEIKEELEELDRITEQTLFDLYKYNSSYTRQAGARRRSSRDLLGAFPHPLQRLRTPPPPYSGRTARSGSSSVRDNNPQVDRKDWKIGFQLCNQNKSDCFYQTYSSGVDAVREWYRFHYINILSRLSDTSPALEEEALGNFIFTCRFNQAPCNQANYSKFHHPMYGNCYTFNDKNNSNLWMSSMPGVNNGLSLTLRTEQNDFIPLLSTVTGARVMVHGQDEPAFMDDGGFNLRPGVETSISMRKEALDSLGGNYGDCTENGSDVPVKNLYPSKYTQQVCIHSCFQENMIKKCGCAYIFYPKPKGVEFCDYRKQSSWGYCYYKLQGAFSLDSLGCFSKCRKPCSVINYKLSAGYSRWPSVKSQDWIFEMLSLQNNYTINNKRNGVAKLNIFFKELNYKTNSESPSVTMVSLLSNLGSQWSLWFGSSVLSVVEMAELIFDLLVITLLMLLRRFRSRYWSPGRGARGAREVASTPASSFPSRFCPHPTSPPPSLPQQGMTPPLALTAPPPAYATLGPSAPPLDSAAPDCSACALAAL
T2 sequence (P37090 1-638): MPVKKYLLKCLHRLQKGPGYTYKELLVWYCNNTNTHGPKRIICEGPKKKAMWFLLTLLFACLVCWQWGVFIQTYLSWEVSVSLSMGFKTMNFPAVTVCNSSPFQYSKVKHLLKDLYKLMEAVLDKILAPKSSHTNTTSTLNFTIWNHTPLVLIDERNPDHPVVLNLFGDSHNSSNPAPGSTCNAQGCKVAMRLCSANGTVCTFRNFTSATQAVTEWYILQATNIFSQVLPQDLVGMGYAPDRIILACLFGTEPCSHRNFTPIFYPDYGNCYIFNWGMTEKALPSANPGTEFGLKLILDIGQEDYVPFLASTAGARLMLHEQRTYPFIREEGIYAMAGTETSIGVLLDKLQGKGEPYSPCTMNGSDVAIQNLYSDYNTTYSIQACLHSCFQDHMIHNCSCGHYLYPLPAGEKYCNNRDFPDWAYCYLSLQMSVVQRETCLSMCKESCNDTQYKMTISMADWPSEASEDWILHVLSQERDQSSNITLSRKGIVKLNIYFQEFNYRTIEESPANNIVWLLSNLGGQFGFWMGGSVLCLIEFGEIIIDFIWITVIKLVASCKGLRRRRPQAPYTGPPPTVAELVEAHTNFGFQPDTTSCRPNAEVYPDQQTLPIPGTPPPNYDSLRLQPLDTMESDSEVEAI
T2 sequence (P37091 1-650): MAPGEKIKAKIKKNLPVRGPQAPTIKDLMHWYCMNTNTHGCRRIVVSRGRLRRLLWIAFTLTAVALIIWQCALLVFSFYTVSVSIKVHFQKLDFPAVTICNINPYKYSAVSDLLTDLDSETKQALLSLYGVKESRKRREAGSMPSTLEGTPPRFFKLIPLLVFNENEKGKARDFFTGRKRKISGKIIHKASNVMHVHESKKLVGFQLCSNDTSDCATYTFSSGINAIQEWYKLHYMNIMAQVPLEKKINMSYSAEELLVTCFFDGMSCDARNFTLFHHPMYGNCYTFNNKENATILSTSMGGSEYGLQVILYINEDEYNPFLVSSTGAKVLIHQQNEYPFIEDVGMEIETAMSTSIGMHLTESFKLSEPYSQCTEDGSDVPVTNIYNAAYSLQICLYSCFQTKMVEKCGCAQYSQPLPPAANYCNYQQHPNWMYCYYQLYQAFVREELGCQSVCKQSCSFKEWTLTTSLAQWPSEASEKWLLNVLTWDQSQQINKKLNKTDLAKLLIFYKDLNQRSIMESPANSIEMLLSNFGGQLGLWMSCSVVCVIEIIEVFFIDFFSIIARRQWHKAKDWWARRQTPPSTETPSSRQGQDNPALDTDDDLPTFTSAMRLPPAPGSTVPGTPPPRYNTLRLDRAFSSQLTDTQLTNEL


How the values were obtained:
Type in all cases: cell-based
CFTR = target: T3, CFTR (Homo sapiens, UniProt P13569); experiment: CFTR activity in Xenopus oocytes co-expressing CFTR and β2 adrenergic receptor; details: 10 μM isoproterenol, β2AR co-expressed
T3 construct: expressed in transfected cells; host or cells: Xenopus laevis oocytes
Experimental: (§1) Oocyte studies. Xenopus laevis oocytes were harvested and injected as described (Donaldson, et al., J. Biol. Chem. 277:8338 (2002)). Defolliculated healthy stage V-VI oocytes were injected with 0.3 ng of cRNA of each ENaC subunit. Injected oocytes were kept in modified Barth's saline (in mM: 88 NaCl, 1 KCl, 2.4 NaHCO3, 0.3 Ca(NO3)2, 0.41 CaCl2, 0.82 MgSO4, and 15 HEPES, adjusted to pH 7.35 with Tris). Oocytes were studied 24 hr after injection using the two electrode voltage clamp technique as previously described (Donaldson, et al., J. Biol. Chem. 277:8338 (2002)). Oocytes were clamped at a holding potential of […]. The change in amiloride-sensitive whole cell current as an indicator of ENaC activity was determined by subtracting the corresponding current value measured in the presence of 10 μM amiloride from that measured before the application of amiloride.
In both cases, we co-expressed CFTR with the β2 adrenergic receptor (β2AR) which can be stimulated with isoproterenol to raise cAMP and stimulate CFTR (Uezono et al., Receptors Channels 1:233 (1993)).

ENaC = target: T1, ENaC; experiment: Transepithelial voltage under thin film conditions in human bronchial epithelial cultures (microelectrode); details: prewashed cultures, PD remeasured 45 min later; DTT-reduced vs 50 ng/ml recombinant SPLUNC1
Text: Tissue procurement and cell culture: Cells were harvested by enzymatic digestion from human bronchial tissue as previously described under a protocol approved by the UNC School of Medicine IRB (Tarran et al., J. Gen. Physiol. 127:591 (2006)). Human excess donor lungs and excised recipient lungs were obtained at the time of lung transplantation from portions of main stem or […] bronchi and cells were harvested by enzymatic digestion. All preparations were maintained at an air-liquid interface in a modified bronchial epithelial medium and used 2-5 weeks after seeding on 12 mm T-Clear inserts (Corning Costar) coated with human placental type VI collagen (Sigma). Phosphate buffered saline (PBS) was used for washing human bronchial epithelial culture mucosal surfaces.
Microelectrode studies. A single-barreled potential difference-sensing electrode was placed in the airway surface liquid by micromanipulator and used in conjunction with a macroelectrode in the serosal solution to measure transepithelial voltage using a voltmeter (World Precision Instruments). […] Transepithelial resistance was routinely measured using the EVOM system (WPI) as previously described (Tarran et al., J. Gen. Physiol. 127:591 (2006)).

αβγENaC = target: T2, αβγENaC; experiment: Amiloride-sensitive whole cell current in Xenopus laevis oocytes expressing ENaC (two electrode voltage clamp); details: co-expression with α,β,γ ENaC in oocytes, FIG. 13
Experimental: as §1

T3 sequence (P13569 whole entry, species assumed): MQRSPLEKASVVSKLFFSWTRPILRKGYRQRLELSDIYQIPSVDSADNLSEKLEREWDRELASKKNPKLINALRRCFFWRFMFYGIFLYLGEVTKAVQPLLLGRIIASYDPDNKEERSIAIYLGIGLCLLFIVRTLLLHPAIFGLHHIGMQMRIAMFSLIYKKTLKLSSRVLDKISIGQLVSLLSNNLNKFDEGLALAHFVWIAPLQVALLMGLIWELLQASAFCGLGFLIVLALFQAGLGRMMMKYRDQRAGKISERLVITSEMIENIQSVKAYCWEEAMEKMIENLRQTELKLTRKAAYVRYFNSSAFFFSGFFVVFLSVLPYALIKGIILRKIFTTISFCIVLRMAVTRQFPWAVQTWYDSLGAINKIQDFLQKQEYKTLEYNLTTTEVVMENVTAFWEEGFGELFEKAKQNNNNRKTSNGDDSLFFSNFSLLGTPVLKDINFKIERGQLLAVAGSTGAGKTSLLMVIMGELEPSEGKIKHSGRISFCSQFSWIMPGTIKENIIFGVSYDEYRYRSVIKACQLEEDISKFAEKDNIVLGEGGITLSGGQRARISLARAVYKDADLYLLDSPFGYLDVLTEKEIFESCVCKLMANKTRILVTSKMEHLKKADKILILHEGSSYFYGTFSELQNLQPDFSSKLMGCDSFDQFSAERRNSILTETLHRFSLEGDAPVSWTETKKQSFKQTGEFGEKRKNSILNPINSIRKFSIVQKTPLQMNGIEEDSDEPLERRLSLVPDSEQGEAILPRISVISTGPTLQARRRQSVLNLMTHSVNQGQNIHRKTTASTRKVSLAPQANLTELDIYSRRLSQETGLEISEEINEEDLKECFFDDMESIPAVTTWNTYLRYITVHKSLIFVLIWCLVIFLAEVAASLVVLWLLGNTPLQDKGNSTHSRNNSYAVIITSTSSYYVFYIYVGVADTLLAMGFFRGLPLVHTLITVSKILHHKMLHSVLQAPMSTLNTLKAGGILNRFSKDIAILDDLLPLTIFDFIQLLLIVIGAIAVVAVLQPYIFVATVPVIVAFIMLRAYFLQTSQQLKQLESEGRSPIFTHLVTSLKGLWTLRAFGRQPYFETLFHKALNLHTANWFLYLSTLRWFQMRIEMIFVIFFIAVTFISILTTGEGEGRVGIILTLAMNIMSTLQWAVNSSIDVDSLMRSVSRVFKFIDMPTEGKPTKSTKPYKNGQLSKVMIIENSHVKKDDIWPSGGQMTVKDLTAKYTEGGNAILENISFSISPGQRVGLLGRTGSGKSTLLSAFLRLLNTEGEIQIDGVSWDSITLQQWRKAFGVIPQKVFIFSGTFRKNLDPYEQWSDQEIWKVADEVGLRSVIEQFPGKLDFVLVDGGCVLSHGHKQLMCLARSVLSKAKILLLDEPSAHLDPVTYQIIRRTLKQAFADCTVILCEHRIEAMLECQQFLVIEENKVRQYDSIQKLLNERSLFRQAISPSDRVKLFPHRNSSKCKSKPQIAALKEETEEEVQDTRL

Row | Molecule | reduction of amiloride-sensitive ENaC current relative to CTRL (significance) (αβγENaC) | other results
1 | CC(C)NCC(O)c1ccc(O)c(O)c1 (stereo not shown) [isoproterenol, reference compound] |  | CFTR activation (CFTR): robustly activated
2 | recombinant SPLUNC1 that had been reduced with DTT: recombinant SPLUNC1 reduced with DTT (protein, UniProt Q9NP55 20-256, looked up, DTT-reduced) BPI fold-containing family A …: QFGGLPVPLDQTLPLNVNPALPLSPTGLAGSLTNALSNGLLSGGLLGILENLPLLDILKPGGGTSGGLLGGLLGKVTSVIPGLNNIIDIKVTDPQLLELGLVQSPDGHRLYVTIPLGIKLQVNTPLVGASLLRLAVKLDITAEILAVRDKQERIHLVLGDCTHSPGSLQISLLDGLGPLPIQGLLDSLTGILNKVLPELVQGNVCPLVNEVLRGLDITLVHDIVNMLIHGLQFVIKV |  | inhibition of the transepithelial PD (SPLUNC1 activity) (ENaC): abolished; also recorded: attenuated
3 | LPLUNC1: long PLUNC family member co-expressed in oocytes (protein) TLSPTAVLILGPKVIKEKLTQELKDHNATSILQQLPLLSAMREKPAGGIPVLGSLVNTVLKHIIWLKVITANILQLQVKPSANDQELLVKIPLDMVAGFNTPLVKTIVEFHMTTEAQATIRMDTSASGPTRLVLSDCATSHGSLRIQLLHKLSFLVNALAKQVMNLLVPSLPNLVKNQLCPVIEASFNGMYADLLQLVKVPISLSIDRLEFDLLYPAIKGDTIQLYLGAKLLDSQGKVTKWFNNSAASLTMPTLDNIPFSLIVSQDVVKAAVAAVLSPEEFMVLLDSVLPESAHRLKSSIGLINEKAADKLGSTQIVKILTQDTPEFFIDQGHAKVAQLIVLEVFPSSEALRPLFTLGIEASSEAQFYTKGDQLILNLNNISSDRIQLMNSGIGWFQPDVLKNIITEIIHSILLPNQNGKLRSGVPVSLVKALGFEAAESSLTKDALVLTPASLWKPSSPVSQ | no significant ENaC current reduction | 
4 | SPLUNC2: human SPLUNC2 protein (SEQ ID NO:2), co-expressed in oocytes (protein, listed as Homo sapiens) MLQLWKLVLLCGVLTGTSESLLDNLGNDLSNVVDKLEPVLHEGLETVDNTLKGILEKLKVDLGVLQKSSAWQLAKQKAQEAEKLLNNVISKLLPTNTDIFGLKISNSLILDVKAEPIDDGKGLNLSFPVTANVTVAGPIIGQIINLKASLDLLTAVTIETDPQTHQPVAVLGECASDPTSISLSLLDKHSQIINKFVNSVINTLKSTVSSLLQKEICPLIRIFIHSLDVNVIQQVVDNPQHKTQLQTLI | borderline significance | 
